PMC3939855 (Nature immunology, 2013)
Where two headings read alike, the source gives them in different places.

Legend:
[1] = biological target: the molecule itself
native gel or EMSA = biological target: the molecule itself; assay: native gel or EMSA

B1: ELF4 (expressed from a plasmid; tag not stated for the experiment) (natural protein)
chain: not shown
stoichiometry N [1]: 2

B2: ELF4 (endogenous, mouse cells) (natural protein)
chain: not shown
stoichiometry N (native gel or EMSA): 2

B3: ELF4 (endogenous, human cells) (natural protein)
chain: not shown
stoichiometry N (native gel or EMSA): 2
